Starred links: 1 amine or outer side, 2 acyl side, 3 side chain; linkers in the order of their positions; H or OH if unused. Positions of bridges follow the written chain, without caps; N, C: chain ends. Non-standard residues stand in square brackets, D forms with d. Groups on a side chain read outwards from the residue. No end group written: not given here. *: point of attachment. Phe(4-COOH) = N[C@@H](Cc1ccc(C(=O)O)cc1)C(=O)O; C20 diacid = O=C(O)CCCCCCCCCCCCCCCCCCC(=O)*; C19 diacid = O=C(O)CCCCCCCCCCCCCCCCCC(=O)*; C18 diacid = O=C(O)CCCCCCCCCCCCCCCCC(=O)*; γGlu = O=C(O)[C@H](CCC(=O)[*:2])N[*:1]
T1: NPY5R
T1 sequence (Q15761 1-445, species assumed, looked up): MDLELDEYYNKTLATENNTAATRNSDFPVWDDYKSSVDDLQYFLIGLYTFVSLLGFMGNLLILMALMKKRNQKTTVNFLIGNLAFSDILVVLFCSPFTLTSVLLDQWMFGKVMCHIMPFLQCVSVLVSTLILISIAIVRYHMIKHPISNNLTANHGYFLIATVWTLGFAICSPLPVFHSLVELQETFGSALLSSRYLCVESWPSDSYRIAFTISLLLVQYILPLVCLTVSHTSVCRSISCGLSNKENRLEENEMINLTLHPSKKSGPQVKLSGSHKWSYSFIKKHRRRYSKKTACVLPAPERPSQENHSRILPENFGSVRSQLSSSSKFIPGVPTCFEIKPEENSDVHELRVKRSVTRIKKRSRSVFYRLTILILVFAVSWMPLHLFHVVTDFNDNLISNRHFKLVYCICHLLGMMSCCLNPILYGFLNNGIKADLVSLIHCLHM

T2: NPY2R
T2 sequence (P49146 1-381, species assumed, looked up): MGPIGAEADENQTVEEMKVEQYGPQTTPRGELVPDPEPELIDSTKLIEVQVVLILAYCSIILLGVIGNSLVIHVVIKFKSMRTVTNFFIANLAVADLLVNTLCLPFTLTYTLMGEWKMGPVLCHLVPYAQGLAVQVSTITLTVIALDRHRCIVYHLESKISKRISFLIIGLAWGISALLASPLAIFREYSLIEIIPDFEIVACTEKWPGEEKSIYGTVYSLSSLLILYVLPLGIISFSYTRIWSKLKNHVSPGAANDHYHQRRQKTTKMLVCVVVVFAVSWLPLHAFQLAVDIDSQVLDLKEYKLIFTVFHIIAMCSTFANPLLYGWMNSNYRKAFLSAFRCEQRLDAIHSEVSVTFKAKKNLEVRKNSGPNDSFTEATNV

B1: Compound A40 (peptide)
peptide: PKPEKPGK([γGlu-γGlu-C19 diacid])DASPKEWDRYYKDLRHYLNWLTRQRF-NH2
modifications: lactam 16-20; N-terminus assumed
SMILES: CC(C)C[C@H](NC(=O)[C@H](CC(=O)O)NC(=O)[C@@H]1CCCCNC(=O)C[C@H](NC(=O)[C@H](Cc2c[nH]c3ccccc23)NC(=O)[C@H](CCC(=O)O)NC(=O)[C@H](CCCCN)NC(=O)[C@@H]2CCCN2C(=O)[C@H](CO)NC(=O)[C@H](C)NC(=O)[C@H](CC(=O)O)NC(=O)[C@H](CCCCNC(=O)CC[C@H](NC(=O)CC[C@H](NC(=O)CCCCCCCCCCCCCCCCCC(=O)O)C(=O)O)C(=O)O)NC(=O)CNC(=O)[C@@H]2CCCN2C(=O)[C@H](CCCCN)NC(=O)[C@H](CCC(=O)O)NC(=O)[C@@H]2CCCN2C(=O)[C@H](CCCCN)NC(=O)[C@@H]2CCCN2)C(=O)N[C@@H](CCCNC(=N)N)C(=O)N[C@@H](Cc2ccc(O)cc2)C(=O)N[C@@H](Cc2ccc(O)cc2)C(=O)N1)C(=O)N[C@@H](CCCNC(=N)N)C(=O)N[C@@H](Cc1c[nH]cn1)C(=O)N[C@@H](Cc1ccc(O)cc1)C(=O)N[C@@H](CC(C)C)C(=O)N[C@@H](CC(N)=O)C(=O)N[C@@H](Cc1c[nH]c2ccccc12)C(=O)N[C@@H](CC(C)C)C(=O)N[C@H](C(=O)N[C@@H](CCCNC(=N)N)C(=O)N[C@@H](CCC(N)=O)C(=O)N[C@@H](CCCNC(=N)N)C(=O)N[C@@H](Cc1ccccc1)C(N)=O)[C@@H](C)O
B2: Compound A38 (peptide)
peptide: PKPEK([γGlu-γGlu-C18 diacid])PGEDASPKEWNRYYKDLRHYLNWLTRQRF-NH2
modifications: N-terminus assumed
SMILES: CC(C)C[C@H](NC(=O)[C@H](CC(=O)O)NC(=O)[C@H](CCCCN)NC(=O)[C@H](Cc1ccc(O)cc1)NC(=O)[C@H](Cc1ccc(O)cc1)NC(=O)[C@H](CCCNC(=N)N)NC(=O)[C@H](CC(N)=O)NC(=O)[C@H](Cc1c[nH]c2ccccc12)NC(=O)[C@H](CCC(=O)O)NC(=O)[C@H](CCCCN)NC(=O)[C@@H]1CCCN1C(=O)[C@H](CO)NC(=O)[C@H](C)NC(=O)[C@H](CC(=O)O)NC(=O)[C@H](CCC(=O)O)NC(=O)CNC(=O)[C@@H]1CCCN1C(=O)[C@H](CCCCNC(=O)CC[C@H](NC(=O)CC[C@H](NC(=O)CCCCCCCCCCCCCCCCC(=O)O)C(=O)O)C(=O)O)NC(=O)[C@H](CCC(=O)O)NC(=O)[C@@H]1CCCN1C(=O)[C@H](CCCCN)NC(=O)[C@@H]1CCCN1)C(=O)N[C@@H](CCCNC(=N)N)C(=O)N[C@@H](Cc1c[nH]cn1)C(=O)N[C@@H](Cc1ccc(O)cc1)C(=O)N[C@@H](CC(C)C)C(=O)N[C@@H](CC(N)=O)C(=O)N[C@@H](Cc1c[nH]c2ccccc12)C(=O)N[C@@H](CC(C)C)C(=O)N[C@H](C(=O)N[C@@H](CCCNC(=N)N)C(=O)N[C@@H](CCC(N)=O)C(=O)N[C@@H](CCCNC(=N)N)C(=O)N[C@@H](Cc1ccccc1)C(N)=O)[C@@H](C)O
B3: Compound A75 (peptide)
peptide: PKPEKPGK([γGlu-γGlu-C20 diacid])DASPEEWSRYYKDLRHYLNWLTRQRF-NH2
modifications: N-terminus assumed
SMILES: CC(C)C[C@H](NC(=O)[C@H](CC(=O)O)NC(=O)[C@H](CCCCN)NC(=O)[C@H](Cc1ccc(O)cc1)NC(=O)[C@H](Cc1ccc(O)cc1)NC(=O)[C@H](CCCNC(=N)N)NC(=O)[C@H](CO)NC(=O)[C@H](Cc1c[nH]c2ccccc12)NC(=O)[C@H](CCC(=O)O)NC(=O)[C@H](CCC(=O)O)NC(=O)[C@@H]1CCCN1C(=O)[C@H](CO)NC(=O)[C@H](C)NC(=O)[C@H](CC(=O)O)NC(=O)[C@H](CCCCNC(=O)CC[C@H](NC(=O)CC[C@H](NC(=O)CCCCCCCCCCCCCCCCCCC(=O)O)C(=O)O)C(=O)O)NC(=O)CNC(=O)[C@@H]1CCCN1C(=O)[C@H](CCCCN)NC(=O)[C@H](CCC(=O)O)NC(=O)[C@@H]1CCCN1C(=O)[C@H](CCCCN)NC(=O)[C@@H]1CCCN1)C(=O)N[C@@H](CCCNC(=N)N)C(=O)N[C@@H](Cc1c[nH]cn1)C(=O)N[C@@H](Cc1ccc(O)cc1)C(=O)N[C@@H](CC(C)C)C(=O)N[C@@H](CC(N)=O)C(=O)N[C@@H](Cc1c[nH]c2ccccc12)C(=O)N[C@@H](CC(C)C)C(=O)N[C@H](C(=O)N[C@@H](CCCNC(=N)N)C(=O)N[C@@H](CCC(N)=O)C(=O)N[C@@H](CCCNC(=N)N)C(=O)N[C@@H](Cc1ccccc1)C(N)=O)[C@@H](C)O
B4: Compound A37 (peptide)
peptide: PKPEK([γGlu-γGlu-C20 diacid])PGKDASPKEWNRYYKDLRHYLNWLTRQRF-NH2
modifications: N-terminus assumed
SMILES: CC(C)C[C@H](NC(=O)[C@H](CC(=O)O)NC(=O)[C@H](CCCCN)NC(=O)[C@H](Cc1ccc(O)cc1)NC(=O)[C@H](Cc1ccc(O)cc1)NC(=O)[C@H](CCCNC(=N)N)NC(=O)[C@H](CC(N)=O)NC(=O)[C@H](Cc1c[nH]c2ccccc12)NC(=O)[C@H](CCC(=O)O)NC(=O)[C@H](CCCCN)NC(=O)[C@@H]1CCCN1C(=O)[C@H](CO)NC(=O)[C@H](C)NC(=O)[C@H](CC(=O)O)NC(=O)[C@H](CCCCN)NC(=O)CNC(=O)[C@@H]1CCCN1C(=O)[C@H](CCCCNC(=O)CC[C@H](NC(=O)CC[C@H](NC(=O)CCCCCCCCCCCCCCCCCCC(=O)O)C(=O)O)C(=O)O)NC(=O)[C@H](CCC(=O)O)NC(=O)[C@@H]1CCCN1C(=O)[C@H](CCCCN)NC(=O)[C@@H]1CCCN1)C(=O)N[C@@H](CCCNC(=N)N)C(=O)N[C@@H](Cc1c[nH]cn1)C(=O)N[C@@H](Cc1ccc(O)cc1)C(=O)N[C@@H](CC(C)C)C(=O)N[C@@H](CC(N)=O)C(=O)N[C@@H](Cc1c[nH]c2ccccc12)C(=O)N[C@@H](CC(C)C)C(=O)N[C@H](C(=O)N[C@@H](CCCNC(=N)N)C(=O)N[C@@H](CCC(N)=O)C(=O)N[C@@H](CCCNC(=N)N)C(=O)N[C@@H](Cc1ccccc1)C(N)=O)[C@@H](C)O

The binders below were run against T1, NPY5R (assay: cell-based or functional assay).

Point of comparison: PKPEAPGK([γGlu-γGlu-C20 diacid])DASPEEWKRYYEDLRHYLNWLTRQRF-NH2 (lactam 16-20) [Compound A43], “NPY5R pEC50” value 8.5 -Log(EC50, M). Against it:
- PKPEAPGK([γGlu-γGlu-C20 diacid])DASPEEWDRYYKDLRHYLNWLTRQRF-NH2 (lactam 16-20) [Compound A42] — higher, 9.1 -Log(EC50, M)
- PKPEAPGK([γGlu-γGlu-C20 diacid])DASPEEWKRYYDDLRHYLNWLTRQRF-NH2 (lactam 16-20) [Compound A44] — higher, 9.2 -Log(EC50, M)
- PKPEAPGK([γGlu-γGlu-C20 diacid])DASPEEWNRYYADLRHYLNWLTRQR[Phe(4-COOH)]-NH2 [Compound A59] — lower, 6 -Log(EC50, M)
- B1 — higher, 9 -Log(EC50, M)
- B2 — lower, 8.4 -Log(EC50, M)
- B3 — higher, 9.3 -Log(EC50, M)
- B4 — higher, 8.6 -Log(EC50, M)
- PKPEAPGK([γGlu-γGlu-C20 diacid])DASPEEWERYYKDLRHYLNWLTRQRF-NH2 (lactam 16-20) [Compound A41] — higher, 9.3 -Log(EC50, M)

The binders below were run against T2, NPY2R (assay: cell-based or functional assay).

Point of comparison: PKPEAPGK([γGlu-γGlu-C20 diacid])DASPEEWERYYKDLRHYLNWLTRQRF-NH2 (lactam 16-20) [Compound A41], “NPY2R pEC50” value 10.5 -Log(EC50, M). Against it:
- PKPEAPGK([γGlu-γGlu-C20 diacid])DASPEEWDRYYKDLRHYLNWLTRQRF-NH2 (lactam 16-20) [Compound A42] — lower, 10.3 -Log(EC50, M)
- PKPEAPGK([γGlu-γGlu-C20 diacid])DASPEEWKRYYDDLRHYLNWLTRQRF-NH2 (lactam 16-20) [Compound A44] — lower, 9.7 -Log(EC50, M)
- PKPEAPGK([γGlu-γGlu-C20 diacid])DASPEEWKRYYEDLRHYLNWLTRQRF-NH2 (lactam 16-20) [Compound A43] — the same, 10.5 -Log(EC50, M)
- B4 — higher, 10.8 -Log(EC50, M)
